System: Escherichia coli TOP10
Test: shrunken log2 fold change of peptide-encoding DNA abundance (4.5 h post-induction vs induction); higher = less antimicrobial activity (less host growth inhibition)
Conditions: time post-induction: 4.5 h; library: site-saturation at positions 5, 18, 19, 20
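Also: peptides expressed intracellularly from a pBAD plasmid library in pooled LB shake-flask culture, induced with 0.3% L-arabinose, DNA abundance read by NGS, three biological replicates, DESeq2 with apeglm shrinkage.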

## RRIRCRPPRLPRPRPRPGHHPRP
  shrunken log2 fold change: -0.439

## RRIRRRPPRLPRPRPRPPAGPRP
  shrunken log2 fold change: 0.753

## RRIRDRPPRLPRPRPRPMPMPRP
  shrunken log2 fold change: 0.0753

## RRIRTRPPRLPRPRPRPKIVPRP
  shrunken log2 fold change: -0.0543

## RRIRTRPPRLPRPRPRPCHIPRP
  shrunken log2 fold change: -0.292

## RRIRKRPPRLPRPRPRPDGRPRP
  shrunken log2 fold change: 0.0261

## RRIRFRPPRLPRPRPRPDRPPRP
  shrunken log2 fold change: 0.033

## RRIRQRPPRLPRPRPRPCAVPRP
  shrunken log2 fold change: 0.0208

## RRIRGRPPRLPRPRPRPFFSPRP
  shrunken log2 fold change: 0.125

## RRIRLRPPRLPRPRPRPMAWPRP
  shrunken log2 fold change: -0.0215

## RRIRMRPPRLPRPRPRPKPQPRP
  shrunken log2 fold change: 1.41

## RRIRMRPPRLPRPRPRPSHNPRP
  shrunken log2 fold change: -0.194

## RRIRRRPPRLPRPRPRPHMVPRP
  shrunken log2 fold change: -0.355

## RRIRRRPPRLPRPRPRPVARPRP
  shrunken log2 fold change: 0.896

## RRIRRRPPRLPRPRPRPKPHPRP
  shrunken log2 fold change: 0.536

## RRIRNRPPRLPRPRPRPKFIPRP
  shrunken log2 fold change: -0.602

## RRIRQRPPRLPRPRPRPLWPPRP
  shrunken log2 fold change: 0.227

## RRIRIRPPRLPRPRPRPSRSPRP
  shrunken log2 fold change: -0.605

## RRIRDRPPRLPRPRPRPDKIPRP
  shrunken log2 fold change: 0.231

## RRIRVRPPRLPRPRPRPYPCPRP
  shrunken log2 fold change: 3.36e-05

## RRIRHRPPRLPRPRPRPTDEPRP
  shrunken log2 fold change: -0.123

## RRIRQRPPRLPRPRPRPWVVPRP
  shrunken log2 fold change: 0.0305

## RRIRDRPPRLPRPRPRPSGRPRP
  shrunken log2 fold change: 0.124

## RRIRGRPPRLPRPRPRPADMPRP
  shrunken log2 fold change: 0.373

## RRIRIRPPRLPRPRPRPDHEPRP
  shrunken log2 fold change: 0.147

## RRIRRRPPRLPRPRPRPCREPRP
  shrunken log2 fold change: 0.0134

## RRIRDRPPRLPRPRPRPDNNPRP
  shrunken log2 fold change: -0.0748

## RRIRHRPPRLPRPRPRPHTTPRP
  shrunken log2 fold change: -0.491

## RRIRRRPPRLPRPRPRPCCQPRP
  shrunken log2 fold change: 0.0136

## RRIRGRPPRLPRPRPRPQPLPRP
  shrunken log2 fold change: 0.45

## RRIRFRPPRLPRPRPRPVMNPRP
  shrunken log2 fold change: -0.548

## RRIRHRPPRLPRPRPRPECMPRP
  shrunken log2 fold change: -0.0379

## RRIRWRPPRLPRPRPRPYDQPRP
  shrunken log2 fold change: -0.395

## RRIRKRPPRLPRPRPRPPPGPRP
  shrunken log2 fold change: 0.961

## RRIRCRPPRLPRPRPRPVRWPRP
  shrunken log2 fold change: 0.952

## RRIRLRPPRLPRPRPRPNLQPRP
  shrunken log2 fold change: -0.0904

## RRIRGRPPRLPRPRPRPGKMPRP
  shrunken log2 fold change: 0.224

## RRIRFRPPRLPRPRPRPAQWPRP
  shrunken log2 fold change: 0.296

## RRIRKRPPRLPRPRPRPHQYPRP
  shrunken log2 fold change: -0.293

## RRIRYRPPRLPRPRPRPCLLPRP
  shrunken log2 fold change: -1.04

## RRIRNRPPRLPRPRPRPQVCPRP
  shrunken log2 fold change: 0.0261

## RRIRMRPPRLPRPRPRPSGEPRP
  shrunken log2 fold change: 0.824

## RRIRCRPPRLPRPRPRPHKCPRP
  shrunken log2 fold change: -0.721

## RRIRVRPPRLPRPRPRPCSLPRP
  shrunken log2 fold change: -0.201

## RRIRQRPPRLPRPRPRPTHDPRP
  shrunken log2 fold change: 0.911

## RRIRSRPPRLPRPRPRPFKKPRP
  shrunken log2 fold change: 0.0549

## RRIRMRPPRLPRPRPRPGHNPRP
  shrunken log2 fold change: 0.231

## RRIRERPPRLPRPRPRPLKKPRP
  shrunken log2 fold change: 0.0403

## RRIRIRPPRLPRPRPRPELIPRP
  shrunken log2 fold change: 0.0381

## RRIRFRPPRLPRPRPRPETYPRP
  shrunken log2 fold change: -0.0354

Source: the supplement of paper PMC9112550, “Optimization of the antimicrobial peptide Bac7 by deep mutational scanning” (BMC Biology, 2022)
